Sequences and labels used below:
B1: 1066 (protein, listed as Caulobacter segnis)
chain: MQIDRRRVMLLGGAGSLVVAQGEAAPLGAAAISDCRVCGLETPLALGAATPRFSWRLSGPRPQAAYRITVARSAADLSAPRDLVWDSGKVASGQSFDIAFGGPAAAPRQVFWWRVEAWDDKGARAVGRPARWETGLLSASDWNAAWLAAEDATAKADRLAGVHWISGPESITDKTSKRCYRTSFEVPAQSDGTLFLAASGLAGVFLNGQELAAGEEEPTRFTTMSPYPLALRQGRNVIAIAQTPSRDLGGPQPMLCALIRLGGSERRLSTAEGWKTTVNAPEGWTLPDFDDGAWPAATTARNRPRGQPLPPGAATHLRRAFRLDKPVAQARLYATALGAYEAWINGAPADERKMAPEPTNLLERVLYQAYDVTAALRAGDNVLGLWVGDGWYASEFSANARFCFGPAPCRAMAQLEILFIDGSRQVIATDDQWRIAPSAILTSEIYDGEVYDARQEIKDWALPGTPQGGWRPAETVEAPNLPIDPQVSPPIRVTQRLKPKAVTSPKPGVHVFDFGQNFAGWAELAISGKAGTRIELLFGEYLKPDGQVDQANLRTAFARDTYVLKGQGREVWSPRFTYHGFRYVEVRGLANAPAADLLTGLVGHNDIRVSGVLRVGAPVVEQFWRNSVWSQRSNFFGLPTDCPQRDERLGWLGDAAVFWPAAAYNMDVEAFTRRFMGDVRRAQRPDGQFPDCIPPFMVPSSRSAPGWSDAGVILPYTAWRQYGDTGVIAENWEAMERYLAFILAKNPDYLWKSSKGNDYGDWLAVDAKYLGEATTPKDLIGTAFWAADAAMMRDMAKAIGKAEAAERYRALFEAIRAAFAGAYVQADGKIGNGSQTSYILAIRFGLLSPEQASEAGRRLAADIAARGGKLSTGFLGTPHILDALADTGHEATAVGLLLQRDYPSWGYMVTKGATTMWERWNSDTGDLSMNSYNHYAFGAIGDFLFRRIAGLAAVEPGFAKVVIAPIFDRRLGSAGADYDSVSGRLSSNWRYEGDTVRLDLSIPPGVQAEVVIPTAARAVRVDGRPVPSARFRVERGQHRVVFTA
B2: 1018 (protein)
chain: MFELDRRALLLGLPVTSGALADGASQTSRWRAVGLRTAMRRQPLGIDDPQPMLSWRLEGPAGAVQSAYQIMVASTAEKLHAGVADLWDSGRVKSSESVGVRYGGAPLKPRQRCVWRVRAWDAAGRASDWSPPATWEMGLIDQSEWIGDWLAVEAADERDDRVAGVRWVETQTPKPHETCRFRLSFRSGGGEGRLAIMAEGKLSKLVLDGRSIELPWRDPNGYGDPPALGLPLQLEAGAHELIAEVTSTGPGEGPGRAALGAQVRVLAADGAARRIVDGWETEAAGAWTPAVVRTAQPHFPWPPTPARLLRRTFTLSKPPTQARLYVSALGGYRIWLNGRRVGDDELQTEPAAYRRHVPYRAYDVTDLLRDGENVVGLIVGDGTFASYQAPDGRYAYGPGPRRVRLFLESRDSGDRVERVATDGEWRHALSPVLMSEIYAGEDHDLRLWPRGWAEPGFDDSGWSRVWTAPPPEGAPCALLSEPIRETRVLKAASIRAVGPGRHIVDFGQNFAGRVRLRVKGAKGAPVIVRHAEILDGQGALDRRNLRVARAEDRYILNGDDAPETLQPSFTYQGFRYAEIEGVAGLDRDMIDGVVLSSDLPEIGVFRTAEPLVQNLWLNSLWSQRSNFMGIPTDCPQRDERLGWTGDAQVFWETAAFNMDVGGFTRGFARTLRDDQAPNGAYPMWSPSPRGLGWGTTTPTPGWADGGVMLPYVAYLHSGDRSIVDENWTAMSAYVSGVLAENPDGLWRRGRGADFGDWLALDGKWPGDETTPKDLIATAMLARSVDQLAQMAAWTGRSAEAKTWRGQADRIKAAFASAFVRADGTVGNGSHTGYILALRLGLAPQPLRKAAGEHLAADIRRRGTLLSTGFLGTPLALDALADHGHAGLAFDLLLRTEYPSWGYMVRRGATTTWERWNGDTGDVSMNSFNHYALGAICGFLYRRVAGVEPITPGFGAFRVAPLIDPRLRSAGATVDSVRGRIETDWRVTGDKAVLKVRVPANSRAEVVLPTLTRSLGAGDHTLSVPLAK
modifications: Caulobacter vibrioides
B3: 1076 (protein, listed as Kribbella flavida)
chain: MSFRTRFGCLLAAVLLLTPLVPATGSPPATRETLQVRNLKTNNLTNPLGVPGTPPRLSWQLDGDRRGITQSRYQIRVASTPAKTARPDIWDSGVVRSTDSIEVPYGGPALTTGTAYHWTVRVWDDAGKASAWSPVATFETGPLRPGDWQGDWIGADNQPGPEWTDTTIDADVTLVKDALGVFFRGRGGVGYMWQLNQLTPDKPLLRPHVRQPGGGYVLLGEIPLAAGTDLKQRHHLRITVAGRTITTWLDGVQVDSRERSDHNAPGVVGFRTDGAEHGVVHSLKVTNVAGEVLVDTAFPAGDQTFPDGTVRAEGGLQVKGTTDLWLPGKPIPVFRKAISLPKAKKVASARIDAAAQGIYELTVNGRKAGDHQLAPGWTDYARRIQSQTYDVTKLLKSGANTLGAEVAPGWFTGNLAMFGPNKYGTDTAFIAQLRVTYTDGTADVFATDSSWQTAPGAVRVADLLNGESYDARRTASEWVPAQVRPSATAKIVPQTDQPVRVTQELKARAIPSPTPGAYLYDLGQNMVGIARLTLHGRPGQTVKIRYGEVLNPDGTLYTDNLRSAKATDHYTFATSRPETYQPRFTFHGFRYVEVSGLPTAPPASAIVGVVLGTDAEQVNEFRTNSPLVNQLHSNIVWGQRGNFLSIPTDTPARDERMGWTGDINVFARTAVYNLDSQAFLTKWLQDLRDTQRADGAYASVAPTVPNSFDGGMGNAGWADAGVNVPWTLWQAYGDTSVIRQHYASMTRYVDYLVASSNGLIRGGGDYGDWLNLDDPTPGELIGTSFVAKGARQLSQMAAAIGHTADAAKYQRVYEDVRAAFAARFVAADGKVGSDSQTGYILAFTSDLVPADRIAAAGEHFAATILRRDTHLSTGFLGVDGLLPVLTKIGRTDLAYRLLQNTSYPSWGYEIGKGATTIWERWNSINPDGTFNDVGMNSFNHYAYGAVGEWMYRTLAGLSAAEPGYRKALIAPTPGDGIDTAQLRHRTPYGEVGSQWRRLADGRFTLEVEVPANTTATVRLPAAEARQITESGRALSRAVGVSGVVDEGTTVALTVGSGNYRFAVRP
B4: 1082 (protein, listed as Streptomyces avermitilis)
chain: MSALRVTSPSVEYVQRPLGLDAAHPRLSWPMASAAPGRRQSAYQVRVASSAAGLSHPDVWDSGKVVSDDSVLVPYAGPPLKPRTRYFWSVRVWDADGGASEWSAPSWWETGLMGASQWSAKWISAPAPLTEAPSLEGSSWIWFPEGEPANSAPAATRWFRRTVDLPDDITGATLAISADNVYAVSVDGAEVARTDLEADNEGWRRPAVIDVLDHVHSGNNTLAVSASNASVGPAGWICVLVLTTASGEKKIFSDASWKSTDHEPADGWREPDFDDSGWPAAKVAAAWGAGPWGRVAPVASAANQLRHEFRLPHKKVSRARLYATALGLYEAHLNGRRVGRDQLAPGWTDYRKRVQYQTYDVTSSVRPGANALAAYVAPGWYAGNVGMFGPHQYGERPALLAQLEVEYADGTSERITSGPDWRAASGPIVSADLLSGETYDARKETAGWTSPGFDDRAWLAVRGADNDVPEQIVAQVDGPVRIAKELPARKVTEPKPGVFVLDLGQNMVGSVRLRVSGDAGTTVRLRHAEVLNPDGTIYTANLRSAAATDTYTLKGQGEETYEPRFTFHGFRYVEVTGFPGKPSTTSVTGRVMHTSAPFTFEFETNVPMLNKLHSNITWGQRGNFLSVPTDTPARDERLGWTGDINVFAPTAAYTMESARFLTKWLVDLRDAQTSDGAFTDVAPAVGNLGNGVAGWGDAGVTVPWALYQAYGDRQVLADALPSVHAWLRYLEKHSDGLLRPADGYGDWLNVSDETPKDVIATAYFAHSADLAARMATELGKDAAPYTDLFTRIRKAFQTAYVASDGKVKGDTQSAYVLTLSMNLVPDALRKAAADRLVALIEAKDWHLSTGFLGTPRLLPVLTDTGHTDVAYRLLHQRTFPSWGYPIDKGSTTMWERWDSIQPDGGFQTPEMNSFNHYAYGSVGEWMYANIAGIAPGRAGYRQVVIRPRPGGEVTSARATFASLHGPVSTRWQQRSGGFVLTCSVPPNTTAEVWIPADHPDRVQHTHGTFVRAEDGCAVFEVGSGSHRFTV

The nature of the first test: Experiment 6-1: screening of rhamnosidases for derhamnosylation of saponins in treated bark extract (2%), QS-17 2296 to QS-18 2150 (PAR %). Particulars: TBE 2%, pH 7.5, 30 degC, 18 h; TIC peak area ratio percent of rhamnosylated starting saponin to derhamnosylated product, LCMS/MS; negative controls 4.876, 5.225. The format is biochemical, Quillaja saponaria.
With B1, the “QS-17 (PAR %)” value amounted to 2.194%.
Consider B2, for which the “QS-17 (PAR %)” value is given as 1.512%.
As for B3, the “QS-17 (PAR %)” value was found to be 3.766%.
As to B4, the “QS-17 (PAR %)” value is reported as 3.122%.

A further test in a line: Experiment 6-1: screening of rhamnosidases for derhamnosylation of saponins in treated bark extract (2%), desglucosyl-QS-17 2134 to QS-21 1988 (PAR %). The conditions noted are these: TBE 2%, pH 7.5, 30 degC, 18 h; TIC peak area ratio percent, LCMS/MS; negative controls 2.719, 2.158. In kind it is biochemical, Quillaja saponaria.
Regarding B1, the “Peak75 (PAR %)” value amounted to 1.220%.
With B2, the “Peak75 (PAR %)” value turned out to be 2.651%.
Take B3: the “Peak75 (PAR %)” value came out at 1.961%.
With B4, the “Peak75 (PAR %)” value amounted to 1.614%.

A further test in a line: Experiment 6-1: screening of rhamnosidases for derhamnosylation of saponins in treated bark extract (2%), QS-17 2310 to QS-18 2164 (PAR %). The format is biochemical, Quillaja saponaria. Particulars: TBE 2%, pH 7.5, 30 degC, 18 h; TIC peak area ratio percent, LCMS/MS; negative controls 3.061, 2.429.
Turning to B1, the “Peak57 (PAR %)” value worked out at 0.896%.
B2: the “Peak57 (PAR %)” value was 0.547%.
Same read-out and setting: in the case of B3 it was 1.295%; in that of B4, 0.000%.

The next test can be described thus: Experiment 6-2: screening of rhamnosidases for derhamnosylation of saponins in treated bark extract (25%), relative % of Left, Middle and Right Peak by UV HPLC. In kind it is biochemical, Quillaja saponaria. Particulars: TBE 25%, pH 7.4, 19.5 h, mainly QS-17 family, negative control 24%.
Consider B1, for which the “Left Peak” value came out at 20%.
B2: the “Left Peak” value is 22%.
Same read-out and setting: in the case of B3 it was 22%.
Consider B4, for which the “Left Peak” value is given as 19%.

Staying with this test, now noted: TBE 25%, pH 7.4, 19.5 h, mainly QS-18 and desglucosyl-QS-17 family, negative control 50%.
B1: the “Middle Peak” value amounted to 53%.
As to B2, the “Middle Peak” value came to 52%.
The same measure, in the same setting: with B3 the figure was 52%; with B4, 55%.

The same test, now with this note: TBE 25%, pH 7.4, 19.5 h, mainly QS-21 family, negative control 26%.
As to B1, the “Right Peak” value is recorded as 27%.
Still for that read-out and setting: with B2 the figure was 26%; with B3, 26%.
On the same count and under the same terms, with B4 the figure was 26%.

The next test in a line: Experiment 6-3: screening of rhamnosidases for derhamnosylation of saponins in crude bark extract (80%), relative % of Left, Middle and Right Peak by UV HPLC. The format is biochemical, Quillaja saponaria. The conditions noted are these: CBE 80%, pH 7.4, 30 degC, 19.5 h, mainly QS-17 family, negative control 27%. The method in brief: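 Clarified lysates of expressed rhamnosidase variants were incubated with crude bark extract (pH 7.4, final 80%) at 30 degC with shaking for 19.5 h, then quenched with MeCN+2% AcOH. UV HPLC gave relative % of Left (QS-17), Middle (QS-18/desglucosyl-QS-17) and Right (QS-21) peaks.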
Turning to B1, the “Left Peak” value is 26%.
The same measure, in the same setting: with B2 the figure was 26%; with B3, 26%; with B4, 26%.

Still in this test, the particulars now being: CBE 80%, pH 7.4, 30 degC, 19.5 h, mainly QS-18 and desglucosyl-QS-17 family, negative control 48%.
As to B1, the “Middle Peak” value is listed as 48%.
Still for that read-out and setting: in the case of B2 it was 48%; in that of B3, 48%.
The same measure, in the same setting: in the case of B4 it was 47%.

The test is the same for the next values; noted with them: CBE 80%, pH 7.4, 30 degC, 19.5 h, mainly QS-21 family, negative control 26%.
For B1, the “Right Peak” value was 27%.
For the molecule B2, the “Right Peak” value is given as 26%.
Turning to B3, the “Right Peak” value was 27%.
Consider B4, for which the “Right Peak” value is given as 27%.

The next test is described as follows: Experiment 6-1: specificity of rhamnosidases towards other rhamnose residues (C3 saccharide rhamnose, C28 saccharide rhamnose). In kind it is biochemical, Quillaja saponaria. The conditions noted are these: TBE 2%, pH 7.5, 30 degC, 18 h; LCMS/MS; negative controls 0.18, 0.17.
As for B1, the “ratio PP/QS-21” value was determined as 0.18.
On to B2, for which the “ratio PP/QS-21” value was found to be 0.17.
On the same count and under the same terms, with B3 the figure was 0.19; with B4, 0.21.

Source of the values: patent US20240026407A1, “MODIFICATION OF SAPONINS” (GLAXOSMITHKLINE BIOLOGICALS SA, priority 2020, published 2024).
